Experimental data published in US20240279618A1, “RECEPTOR TYROSINE KINASE AGONIST, COMPOSITION FOR CELL CULTURE MEDIUM, AND […] MAINTENANCE COMPOSITION” (SEKISUI CHEMICAL CO., LTD., priority 2021, published 2024).
One block for each molecule: values may come before it.

Experiments:
[1] = molecular target: FGFR (fibroblast growth factor receptor on NIH3T3 mouse fibroblast cells); test: cell-based or functional assay
[2] = system: mouse fibroblast cell line NIH/3T3; test: Inhibition of growth factor activity of VHH homodimer by FGFR inhibitor (fibroblasts); format: cell-based; settings: 20 nM
Description: Promotion of Fibroblast Growth by VHH (Homodimer)” described above.
It was examined whether the cell growth activities of bFGF and the single-domain antibody were inhibited by NPV-BGJ398 which is an FGFR kinase inhibitor.

[3] = system: NIH3T3 (mouse fibroblast cell line); test: Inhibition of growth factor activity of VHH homodimer by FGFR antagonist; format: cell-based; settings: 20 nM
Procedure: The cell growth assay for FGF2 was performed according to the following procedure. On Day 1, a suspension including 2.5×10^4 cells/mL of NIH3T3 in DMEM of 10% CS and PS(+) was created, seeded on a CulturPlate-96 (White Opaque 96-well Microplate, manufactured by Perkin Elmer, Cat #6005680) at 100 μL/well, and cultured in a 5% CO2 incubator at 37° C. for 16 to 24 hours. On Day 2, the medium was replaced with FGF2 (PeproTech Cat #AF-100-18B) or serum-free PS(+) DMEM including various test substances, and the cells were further cultured for 2 days. On Day 4, the 96-well plate was left at room temperature for 30 minutes, and then 100 μL of Cell Titer Glo 2.0 Reagent (manufactured by Promega Corporation) at room temperature was added to each well, followed by stirring at 500 rpm for 2 minutes using a plate mixer. The plate was further left to stand for 8 minutes, and then the luminescence in each well was measured with a Synergy HTX plate reader (manufactured by BioTek) with a sensitivity set (Gain) of 200 and a measurement time of 1 s/well.
The addition amounts of FGF2 and #1L4 (hereinafter also referred to as “#1-L4-#1”), which is a dimer of VHH #1 with a linker […], were each 10 or 100 ng/mL.

[4] = molecular target: T1, FGFR1-DII (FGFR1 extracellular domain, DII domain) (human, UniProt P11362 142-250); test: BLI (Octet 384); VHH Clone #1 immobilised on an Anti-Penta-HIS sensor, FGFR1-DII in solution [A]
T1 construct: domain: DII; Expressed in AAVpro293T cells from a synthesised DNA fragment
T1 sequence (looked up): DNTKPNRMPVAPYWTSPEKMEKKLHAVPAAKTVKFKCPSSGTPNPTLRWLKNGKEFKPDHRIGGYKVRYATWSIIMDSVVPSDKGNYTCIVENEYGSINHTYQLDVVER
Procedure: (§1) In the preparation for measurement, a tip of the sensor chip was immersed in 200 μL of the kinetics buffer for 10 minutes in order to hydrate the sensor chip. Thereafter, 70 μL of each measurement solution was added to a 384-well black plate (manufactured by Fortebio), and measurement was performed in the following steps 1) to 6). [0291] 1) Baseline step: Baseline measurement (30 seconds) in a kinetics buffer, [0292] 2) Loading step: Immobilization of a VHH antibody on a sensor (120 seconds), [0293] 3) Baseline step: Baseline measurement (30 seconds) in a kinetics buffer, [0294] […] 5) Dissociation step: Measurement in a kinetics buffer (120 seconds), [0296] 6) Regeneration step: Measurement in Glycin-HCl (pH 2.2) for 5 seconds and measurement in a kinetics buffer for 5 seconds are repeated three times.
(§2) After completion of the measurements, the measured value of a Reference (only the kinetics buffer) was subtracted from the actual measurement value, and Global Fitting was performed using a 1:1 binding model using Octet software to calculate the binding activity (FIG. 22).

[5] = molecular target: T2, FGFR4-Fc (human, UniProt P22455 22-369, limits assumed); test: SPR (Biacore T200, same manner as Example 5, 1:1 model)
T2 construct: not shown: Fc part
T2 sequence (looked up): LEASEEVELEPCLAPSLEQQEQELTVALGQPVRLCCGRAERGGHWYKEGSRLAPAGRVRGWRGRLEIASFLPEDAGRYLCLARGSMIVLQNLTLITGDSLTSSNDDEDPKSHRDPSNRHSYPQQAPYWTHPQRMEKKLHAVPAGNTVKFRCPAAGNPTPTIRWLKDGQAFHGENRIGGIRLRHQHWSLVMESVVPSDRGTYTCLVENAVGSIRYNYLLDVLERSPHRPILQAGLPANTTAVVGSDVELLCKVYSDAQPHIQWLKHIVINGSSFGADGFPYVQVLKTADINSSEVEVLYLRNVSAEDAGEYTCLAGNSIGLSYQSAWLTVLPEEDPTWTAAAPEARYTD

[6] = molecular target: T3, FGFR3-Fc (human, UniProt P22607 23-375); test: as above
T3 chain: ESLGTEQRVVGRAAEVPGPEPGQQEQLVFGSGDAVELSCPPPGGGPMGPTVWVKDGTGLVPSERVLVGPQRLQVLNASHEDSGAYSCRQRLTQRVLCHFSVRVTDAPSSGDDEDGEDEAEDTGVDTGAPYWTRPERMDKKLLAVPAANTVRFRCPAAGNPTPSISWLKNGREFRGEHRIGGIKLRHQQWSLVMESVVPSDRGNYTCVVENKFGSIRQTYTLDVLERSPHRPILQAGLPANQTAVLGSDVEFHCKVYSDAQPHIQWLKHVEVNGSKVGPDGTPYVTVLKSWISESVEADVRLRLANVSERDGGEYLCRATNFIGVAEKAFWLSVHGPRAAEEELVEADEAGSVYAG

[7] = molecular target: T4, FGFR1-DIII (FGFR1 extracellular domain, DIII domain) (human, UniProt P11362 251-365); test: BLI (Octet 384), VHH Clone #1 captured on Anti-Penta-HIS sensor, FGFR1 protein in solution from 100 nM in 2-fold dilutions, global 1:1 fit
T4 construct: domain: DIII; Expressed in AAVpro293T cells from a synthesised DNA fragment
T4 sequence (looked up): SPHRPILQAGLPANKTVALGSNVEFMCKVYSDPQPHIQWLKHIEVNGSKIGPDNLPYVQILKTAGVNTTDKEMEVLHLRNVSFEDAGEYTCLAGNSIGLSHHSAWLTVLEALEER
Procedure: as §1, §2

[8] = molecular target: T5, FGFR1-DIIDIII (FGFR1 extracellular domain, DII and DIII domains) (human, UniProt P11362 142-365); test: as above
T5 construct: domain: DIIDIII; Expressed in AAVpro293T cells from a synthesised DNA fragment
T5 sequence (looked up): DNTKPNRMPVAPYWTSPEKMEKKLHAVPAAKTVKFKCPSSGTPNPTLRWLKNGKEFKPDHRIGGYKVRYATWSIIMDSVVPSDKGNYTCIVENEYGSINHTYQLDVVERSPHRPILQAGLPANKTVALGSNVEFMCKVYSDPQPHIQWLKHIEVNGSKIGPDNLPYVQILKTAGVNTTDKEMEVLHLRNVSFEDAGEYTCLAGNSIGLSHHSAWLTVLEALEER
Procedure: as §1, §2

[9] = molecular target: FGFR2-Fc (human) (UniProt P21802); test: SPR (Biacore T200, same manner as Example 5, 1:1 model)
[10] = molecular target: FGF Receptor 1β (IIIc)/Fc Chimera Human Recombinant Carrier-free (R & D Systems Cat. no. 661-FR) (human) (UniProt P11362); test: SPR (Biacore T200, CAP chip, biotinylated FGFR1-Fc captured, VHH injected at 1.85-50 nM, single-cycle kinetics, 1:1 model, 25 C)

Molecule: CCN1CCN(c2ccc(Nc3cc(N(C)C(=O)Nc4c(Cl)c(OC)cc(OC)c4Cl)ncn3)cc2)CC1 [NVP-BGJ398]
effect of NVP-BGJ398 itself on cell growth [2]: little effect on cell growth
effect of NVP-BGJ398 itself on cell growth [3]: little effect on cell growth

B1: VHH Clone #1 (VHH monomer Clone #1) (VHH)
VHH: QLQLVESGGGSVQAGGSLRLSCAASRSLSRFNVWTWYRQAPVKQRELVASITKSGDTNYAESVKGRFIISRDDDKNTVYLQMNNLKSEDTGIYYCAGSYYSGSYLYPSPGGFSVWGQGTQVTVSS
notes: also called VHH #1; FGFR #1; not shown: C-terminal His tag (purified on Ni Sepharose, captured on Anti-Penta-HIS sensor)
binding result [4]: no binding
Kd [5]: 22.2 nM
koff [5]: 0.0527 s⁻¹
kon [5]: 2.37e+06 M⁻¹ s⁻¹
Kd [6]: 1010 nM
koff [6]: 0.235 s⁻¹
kon [6]: 232000 M⁻¹ s⁻¹
Kd [7]: 1.18 nM
koff [7]: 0.000351 s⁻¹
kon [7]: 298000 M⁻¹ s⁻¹
Kd [8]: 0.489 nM
koff [8]: 0.000141 s⁻¹
kon [8]: 289000 M⁻¹ s⁻¹
Kd [9]: 1630 nM
koff [9]: 0.776 s⁻¹
kon [9]: 484000 M⁻¹ s⁻¹
Kd [10]: 1.74 nM

Other lines, results leading:

EC50 of the growth of cultured fibroblasts (NIH/3T3, Cell Titer Glo luminescence) [1]: 5.1 nM
Molecule: basic FGF (PeproTech, AF-100-18B) (from UniProt P09038 135-288) (ligand)

Kd [10]: 1.02 nM
koff [10]: 0.00114 s⁻¹
kon [10]: 1.11e+06 M⁻¹ s⁻¹
B2: VHH Clone #2 (VHH monomer Clone #2) (VHH, not shown: small tags and cut ends)
VHH: QVQLVESGGGLVQAGGSLRLSCAVPGSIFRFNTMGWYRQPPGKQRELVAQMSRGGITKYGDSVKGRFTITRDNAKNTVHLQMNSLKPEDTAVYYCAGSYYSGSYYYPSPQGFSVWGQGTQVTVSP
